Each block holds one molecule with its values, some of them ahead of it.
Experiments:
[1] = target: T1, LDL (Homo sapiens, UniProt P04114); test: Affinity coelectrophoresis (ACE) assay of LBP binding to LDL; settings: LDL 540 to 14 nM cast in gel
T1 construct: LDL was prepared from the plasma of normolipemic donors; from tissue; host or cells: blood plasma of normolipemic donors, density ultracentrifugation
Protocol: (§1) Analysis of the affinity and specificity of recombinant rabbit LBP-1, LBP-2 or LBP-3 binding to LDL was carried out using the principle of affinity electrophoresis (Lee and Lander, Proc. Natl. Acad. Sci. USA 88:2768-2772 (1991)). Melted agarose (1%; 65° C.) was prepared in 50 mM sodium MOPS, pH 7.0; 125 mM sodium acetate, 0.5% CHAPS. A teflon comb consisting of nine parallel bars (45×4×4 mm/3 mm spacing between bars) was placed onto GelBond film (FMC Bioproducts, Rockland, Me.) fitted to a plexiglass casting tray with the long axis of the bars parallel to the long axis of the casting tray. A teflon strip (66×1×1 mm) was placed on edge with the long axis parallel to the short axis of the casting tray, at a distance of 4 mm from the edge of the teflon comb. Melted agarose (>65° C.) was then poured to achieve a height of approximately 4 mm. […] LDL or HDL samples were prepared in gel buffer (50 mM sodium MOPS, pH 7.0, 125 mM sodium acetate) at twice the desired concentration. Samples were then mixed with an equal volume of melted agarose (in 50 mM MOPS, pH 7.0; 125 mM sodium acetate; 50° C.), pipetted into the appropriate rectangular wells and allowed to gel. The binding affinity and specificity of LBP-1 and LBP-3 was tested using several concentrations of LDL (540 to 14 nM) and HDL (2840177 nM). A constant amount (0.003 nM-0.016 nM) of ^125I-labeled LBP-1, LBP-2 or LBP-3 (suspended in 50 mM sodium MOPS, pH 7.0; 125 mM sodium acetate; 0.5% bromophenol blue; 6% (wt/vol) sucrose) was loaded into the slot. Gels were electrophoresed at 70 v/2 hr/20° C. At the end of the run, the gels were air dried and retardation profiles were visualized by exposure of X-ray films to the gels overnight at −70° C., with intensifying screens.
Rabbit and human LBP-2 contain a long stretch of acidic amino acids at the amino terminal (rabbit LBP-2 amino acid residues 338 through 365 and human LBP-2 amino acid residues 329 through 354). […]

[2] = system: HDL; test: Affinity coelectrophoresis (ACE) assay of LBP binding to HDL; parameters: species or system human; settings: HDL cast in gel
Protocol: as §1, with “A constant amount (0.003 nM-0.016 nM) of ^125I-labeled LBP-1, LBP-2 or LBP-3 (suspended in 50 mM sodium MOPS, pH 7.0; 125 mM sodium acetate; 0.5% bromophenol blue; 6% (wt/vol) sucrose) was loaded into the slot. Gels were electrophoresed at 70 v/2 hr/20° C. At the end of the run, the gels were air dried and retardation profiles were visualized by exposure of X-ray films to the gels overnight at −70° C., with intensifying screens.” left out

[3] = target: T1, LDL; test: ACE competition: cold LBP versus radiolabeled LBP binding to LDL; settings: fixed cold LDL and radiolabeled LBP, increasing cold recombinant LBP
Protocol: Competition studies were carried out using fixed concentrations of cold LDL and radiolabeled LBP-1 and increasing amounts of cold recombinant LBP-1 (6-31 μM). The ACE assay samples and gel were prepared as described herein.
Competition studies using fixed concentrations of cold LDL and clone 26 derived radiolabeled LBP-2 and increasing concentrations of cold recombinant LBP-2/clone 26 and LBP-a/clone 45 were carried out.

[4] = Body weight and serum lipids of LBP-immunized apo E knockout mice; type: in vivo, mouse; settings: P>0.05
Protocol: (§2) Four week old apo E knockout mice (Jackson Laboratories, Bar Harbor, Me.) were ear tagged, randomly assigned to different cages and weighed. Body weights were determined weekly. Animals were allowed to habituate for 1 week. Normal rodent chow was provided ad libitum and animals were maintained in a 12:12 light:dark cycle. The following four groups of mice were treated with either recombinant LBP proteins (40 μg of recombinant protein/mouse) plus RIBI adjuvant or RIBI adjuvant alone (control group).
Blood samples were analyzed for total cholesterol, HDL cholesterol, and triglyceride concentration with a commercially available total cholesterol and triglycerides assay kits (Sigma; St. Louis Mo.) using an ELISA format. HDL concentration was determined after Apo B containing lipoproteins were precipitated using heparin/MnCl2.
Data were analyzed using T-tests and Wilcoxons.

[5] = system: apo E knockout mice; test: Aortic lesion area (Sudan IV staining) in LBP-immunized apo E knockout mice; type: in vivo, mouse; settings: for Effect of immunization on lesions / lesion area: apo E knockout mice; for Lesion Area % Coverage: apo E mice, 26 weeks of age, control 9.40
Protocol: (§3) Separate immunization experiments were performed with each of LBP-1, LBP-2, and LBP-J. Immunity was induced by injecting apo E knockout mice with the LBP protein (LBP-1, LBP-2, or LBP-3) together with an RIBI adjuvant (RIBI ImmunoChem Research, Inc., Hamilton, Mont.). Apo E knockout mice (Jackson Laboratories, Bar Harbor, Me.) are hyperlipidemic and thus a model for human atherosclerosis. Apo E knockout mice have high levels of plasma cholesterol and develop naturally-occurring atherosclerotic-like lesions.
as §2
(§4) Apo E knockout mice were sacrificed at 26 weeks of age. The mice were anesthetized with methoxyfluorane and exanguinated via cardiac puncture. A midline thoracotomy was performed, a cannula inserted into the right ventricle and perfusate allowed unrestricted flow via an incision into the right atrium. The mice were perfused with saline, followed by 10% phosphate buffered formalin until fasciculations stopped. At this time, the aorta was exposed and adventitial fat removed in situ. The aorta was then removed from the heart down to the iliac bifurcation and placed in 10% phosphate buffered formalin overnight.
The aorta was stained as follows: after a brief 70% ethanol rinse, it was immersed in a filtered solution of 0.5% (weight/volume) Sudan IV in 35% ethanol/50% acetone with continuous shaking for 10 minutes at room temperature. Unbound dye was removed by incubating the aorta in an 80% ethanol solution with shaking until the background color was clear. The vessel was then rinsed in distilled water, placed in physiological saline and opened longitudinally from the aortic arch down to the iliac bifurcation. The vessel was pinned out and photographed. Photographs were then digitized using an Astra 1200S scanner (UMAX Technologies Inc., Freemont, Calif.) and a commercially available graphics program (Canvas; Deneba Software, Miami Fla.). Total and lesion areas were determined using the signal processing toolbox of MATLAB (The Mathworks Inc., Natick, Mass.). Percent involvement was calculated by dividing lesion area by total area.

[6] = system: apo E knockout mice; test: Aortic cholesterol content (cholesterol extraction method) in LBP-immunized apo E knockout mice; type: in vivo, mouse; settings: for Arterial Wall Cholesterol: apo E mice
Protocol: as §3, §2, §4
A second analysis was done to measure aortic atherosclerosis by a cholesterol extraction method whereby cholesterol is determined as a unit weight of artery. This method may be more accurate in measuring lesion size than attempting to measure the thickness of many sections. Specifically, the weight of an artery was measured, then the cholesterol was extracted. Aortic cholesterol content was then measured by gas-liquid chromatography. The amount of cholesterol per unit weight of artery was then determined.

[7] = system: LDL receptor negative knockout mice; test: Lesions in LBP-immunized LDL receptor negative knockout mice; type: in vivo, mouse; settings: P>0.05
[8] = system: ballooned deendothelialized rabbit aorta; test: Radiolabeled LDL accumulation in ballooned deendothelialized abdominal aorta after active immunization; type: in vivo; settings: immunized with RIBI adjuvant; corrected for dosage and percent reendothelialization; 24 hr after 125I-LDL
Protocol: Immunity was induced in male New Zealand White rabbits (Hazelton Research Products, Denver, Pa.) as follows: A mixture of purified human recombinant LBP-2 or BHF-1 peptide (1 ml; 1 mg) and RIBI adjuvant (RIBI ImmunoChem Research, Inc., Hamilton, Mont.) was injected subcutaneously at 2-5 sites along the dorsal thoracic and abdominal regions of the rabbits. Blood was collected by venipuncture on days 1 (preimmune bleeding), 35, 63, and 91. Booster injections were administered on days 28 (500 μg; SC), 56 (250 μg; SC), and 84 (125 μg; SC).
On day 93, the abdominal aorta of immunized and control rabbits was deendothelialized using a Fogarty number 4 embolectomy catheter (Chang et al., Arteriosclerosis and Thrombosis 12:1088-1098 (1992)). Four weeks after ballooning, rabbits received a bolus injection of ^125I-labeled LDL (1 ml; i.v.). […] Blood samples were centrifuged for 30 min at 2000 rpm ([…]) and total activity present in the serum was determined using a Gamma counter. Total TCA precipitable counts were determined by addition of TCA to the serum to a final concentration of 10% followed by incubation for 10 min at 4° C. Serum samples were then centrifuged (2000 rpm; 30 min; […]) and total activity present in the supernate was determined. TCA precipitable counts were calculated by subtraction: total soluble counts minus counts present in the supernate after TCA precipitation. […]

T1 sequence (P04114 28-4563): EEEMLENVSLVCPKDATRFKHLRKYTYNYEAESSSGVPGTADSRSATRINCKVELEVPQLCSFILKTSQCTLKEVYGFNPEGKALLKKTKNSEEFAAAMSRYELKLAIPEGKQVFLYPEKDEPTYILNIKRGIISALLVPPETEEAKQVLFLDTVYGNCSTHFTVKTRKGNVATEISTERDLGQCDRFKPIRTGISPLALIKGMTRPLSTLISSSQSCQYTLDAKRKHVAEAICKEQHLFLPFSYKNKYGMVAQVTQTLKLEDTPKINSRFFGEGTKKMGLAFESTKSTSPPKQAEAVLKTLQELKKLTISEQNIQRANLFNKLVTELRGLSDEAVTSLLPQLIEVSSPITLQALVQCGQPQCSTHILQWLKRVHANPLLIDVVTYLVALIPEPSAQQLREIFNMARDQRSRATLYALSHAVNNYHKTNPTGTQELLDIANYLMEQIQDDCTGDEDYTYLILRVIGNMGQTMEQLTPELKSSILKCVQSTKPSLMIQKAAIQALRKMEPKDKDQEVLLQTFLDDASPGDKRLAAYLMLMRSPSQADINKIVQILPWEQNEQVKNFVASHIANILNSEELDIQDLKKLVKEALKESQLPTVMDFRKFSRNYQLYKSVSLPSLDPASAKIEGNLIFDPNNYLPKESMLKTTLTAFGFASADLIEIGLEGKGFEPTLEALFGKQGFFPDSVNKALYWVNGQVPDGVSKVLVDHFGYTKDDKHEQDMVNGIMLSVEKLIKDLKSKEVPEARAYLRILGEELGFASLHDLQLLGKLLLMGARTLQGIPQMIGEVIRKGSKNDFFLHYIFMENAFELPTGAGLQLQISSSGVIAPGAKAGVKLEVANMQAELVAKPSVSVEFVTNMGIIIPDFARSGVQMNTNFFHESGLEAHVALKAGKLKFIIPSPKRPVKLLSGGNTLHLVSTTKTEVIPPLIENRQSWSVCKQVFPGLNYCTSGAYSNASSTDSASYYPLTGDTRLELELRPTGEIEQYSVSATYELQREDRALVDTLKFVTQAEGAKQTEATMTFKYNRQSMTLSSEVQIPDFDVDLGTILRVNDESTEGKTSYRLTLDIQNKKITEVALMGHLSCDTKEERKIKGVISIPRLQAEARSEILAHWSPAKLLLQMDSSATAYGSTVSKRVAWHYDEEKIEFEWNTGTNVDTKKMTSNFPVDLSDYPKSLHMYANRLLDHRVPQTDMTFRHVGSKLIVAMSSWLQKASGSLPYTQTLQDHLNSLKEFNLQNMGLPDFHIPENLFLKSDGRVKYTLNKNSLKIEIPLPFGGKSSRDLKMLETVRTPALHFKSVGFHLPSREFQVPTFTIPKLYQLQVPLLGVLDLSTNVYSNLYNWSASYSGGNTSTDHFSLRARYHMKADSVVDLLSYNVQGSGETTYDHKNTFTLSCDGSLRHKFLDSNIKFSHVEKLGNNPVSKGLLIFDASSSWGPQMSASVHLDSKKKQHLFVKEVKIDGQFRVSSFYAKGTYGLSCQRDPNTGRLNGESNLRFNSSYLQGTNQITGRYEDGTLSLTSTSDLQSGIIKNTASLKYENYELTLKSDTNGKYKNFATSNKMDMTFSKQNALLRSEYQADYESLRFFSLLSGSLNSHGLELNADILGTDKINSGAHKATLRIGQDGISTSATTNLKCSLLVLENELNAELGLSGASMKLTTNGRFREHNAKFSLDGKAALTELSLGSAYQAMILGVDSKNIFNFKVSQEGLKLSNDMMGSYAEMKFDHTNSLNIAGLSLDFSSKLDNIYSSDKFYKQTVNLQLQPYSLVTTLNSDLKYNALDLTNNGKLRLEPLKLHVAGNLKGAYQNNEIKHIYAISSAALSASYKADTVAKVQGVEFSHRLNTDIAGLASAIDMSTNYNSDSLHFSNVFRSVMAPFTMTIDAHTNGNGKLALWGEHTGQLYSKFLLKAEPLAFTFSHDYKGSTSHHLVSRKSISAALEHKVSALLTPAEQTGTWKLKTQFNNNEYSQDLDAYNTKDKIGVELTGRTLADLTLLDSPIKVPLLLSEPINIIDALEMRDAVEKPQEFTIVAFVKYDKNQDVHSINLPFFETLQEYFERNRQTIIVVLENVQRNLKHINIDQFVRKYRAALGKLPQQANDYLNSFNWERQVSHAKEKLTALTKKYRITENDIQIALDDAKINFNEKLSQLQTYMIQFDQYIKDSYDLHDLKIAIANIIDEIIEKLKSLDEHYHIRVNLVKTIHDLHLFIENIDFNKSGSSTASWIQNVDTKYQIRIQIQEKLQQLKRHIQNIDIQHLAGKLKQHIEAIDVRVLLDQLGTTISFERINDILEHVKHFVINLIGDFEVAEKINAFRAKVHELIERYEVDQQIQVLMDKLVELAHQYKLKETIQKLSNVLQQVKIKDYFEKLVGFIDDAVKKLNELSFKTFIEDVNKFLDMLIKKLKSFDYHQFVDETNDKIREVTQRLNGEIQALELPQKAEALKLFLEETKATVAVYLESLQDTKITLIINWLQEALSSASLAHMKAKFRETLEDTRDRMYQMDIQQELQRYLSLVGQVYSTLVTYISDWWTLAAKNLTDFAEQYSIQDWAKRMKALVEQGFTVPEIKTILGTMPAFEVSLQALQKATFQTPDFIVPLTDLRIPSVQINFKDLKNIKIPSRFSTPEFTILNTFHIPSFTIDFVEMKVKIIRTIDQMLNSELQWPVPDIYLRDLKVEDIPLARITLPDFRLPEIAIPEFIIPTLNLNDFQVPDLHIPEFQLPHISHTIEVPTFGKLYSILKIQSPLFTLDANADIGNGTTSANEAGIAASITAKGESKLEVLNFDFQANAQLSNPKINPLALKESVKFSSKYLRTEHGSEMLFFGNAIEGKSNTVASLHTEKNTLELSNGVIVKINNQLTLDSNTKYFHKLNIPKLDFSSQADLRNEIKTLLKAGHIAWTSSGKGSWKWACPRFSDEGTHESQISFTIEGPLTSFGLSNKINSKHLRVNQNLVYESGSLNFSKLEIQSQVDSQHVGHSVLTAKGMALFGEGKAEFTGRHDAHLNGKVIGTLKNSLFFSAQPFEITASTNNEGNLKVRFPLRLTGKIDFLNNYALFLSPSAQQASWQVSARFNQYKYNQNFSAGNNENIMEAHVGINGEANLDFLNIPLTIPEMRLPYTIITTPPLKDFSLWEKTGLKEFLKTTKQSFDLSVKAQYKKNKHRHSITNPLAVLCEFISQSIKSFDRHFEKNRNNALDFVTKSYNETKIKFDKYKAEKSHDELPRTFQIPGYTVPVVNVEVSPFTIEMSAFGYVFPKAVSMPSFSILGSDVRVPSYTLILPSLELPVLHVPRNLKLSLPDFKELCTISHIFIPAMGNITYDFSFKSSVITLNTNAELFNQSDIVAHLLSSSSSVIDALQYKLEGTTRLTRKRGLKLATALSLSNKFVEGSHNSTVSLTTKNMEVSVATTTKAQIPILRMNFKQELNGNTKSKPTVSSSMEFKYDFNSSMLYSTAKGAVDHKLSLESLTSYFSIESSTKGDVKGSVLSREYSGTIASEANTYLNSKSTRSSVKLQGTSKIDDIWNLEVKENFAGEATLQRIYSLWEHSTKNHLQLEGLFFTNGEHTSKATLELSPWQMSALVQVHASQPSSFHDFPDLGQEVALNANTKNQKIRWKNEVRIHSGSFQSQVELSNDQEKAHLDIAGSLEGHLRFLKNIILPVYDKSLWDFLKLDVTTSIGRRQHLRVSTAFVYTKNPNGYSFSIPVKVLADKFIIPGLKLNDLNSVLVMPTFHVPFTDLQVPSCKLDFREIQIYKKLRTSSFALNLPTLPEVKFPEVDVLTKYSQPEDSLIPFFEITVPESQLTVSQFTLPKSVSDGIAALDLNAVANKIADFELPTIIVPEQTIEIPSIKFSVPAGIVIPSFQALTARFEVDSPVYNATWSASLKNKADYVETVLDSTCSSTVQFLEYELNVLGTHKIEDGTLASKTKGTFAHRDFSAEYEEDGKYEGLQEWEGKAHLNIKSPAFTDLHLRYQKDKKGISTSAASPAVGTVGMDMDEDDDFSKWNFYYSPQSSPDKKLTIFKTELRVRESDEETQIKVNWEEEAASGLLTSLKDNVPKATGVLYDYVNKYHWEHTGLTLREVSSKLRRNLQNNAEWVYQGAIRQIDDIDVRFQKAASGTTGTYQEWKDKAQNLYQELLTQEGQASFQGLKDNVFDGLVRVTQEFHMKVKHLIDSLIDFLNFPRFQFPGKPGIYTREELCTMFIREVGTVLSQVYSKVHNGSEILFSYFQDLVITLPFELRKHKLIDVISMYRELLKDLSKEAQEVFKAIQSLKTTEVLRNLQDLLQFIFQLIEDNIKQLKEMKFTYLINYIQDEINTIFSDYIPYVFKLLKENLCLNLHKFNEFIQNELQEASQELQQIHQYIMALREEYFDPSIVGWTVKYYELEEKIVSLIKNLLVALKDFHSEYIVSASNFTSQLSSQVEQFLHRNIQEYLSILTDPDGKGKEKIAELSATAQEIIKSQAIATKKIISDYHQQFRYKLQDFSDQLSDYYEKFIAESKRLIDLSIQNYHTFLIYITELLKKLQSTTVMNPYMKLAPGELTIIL

Retardation of radiolabeled LBP migration by HDL [2]: did not retard | Inhibition by cold LBP of radiolabeled LBP binding to LDL [3]: inhibited binding
B1: LBP-2: rabbit recombinant LBP-2 clone 26 (6-His tag), contains the acidic region (protein)
chain: PPPPQQPQPPPEGGAARAGGPARPVSLREVVRYLGGSSGAGGRLTRGRVQGLLEEEAAARGRLERTRLGALALPRGDRPGRAPPAASARAARNKRAGEERVLEKEEEEEEEEDDEDDDDDVVSEGSEVPESDRPAGAQHHQLNGGERGPQTAKERAKEWSLCGPHPGQEEGRGPAAGSGTRQVFSMAALSKEGGSASSTTGPDSPSPVPLPPGKPALPGADGTPFGCPAGRKEKPADPVEWTVMDVVEYFTEAGFPEQATAFQEQEIDGKSLLLMQRTDVLTGLSIRLGPALKIYEHHIKVLQQGHFEDDDPEGFLG
modifications: left off: small tags and cut ends
notes: rabbit recombinant LBP-2 clone 26 (6-His tag), contains the acidic region
Retardation of radiolabeled LBP migration through the gel by LDL [1]: concentration-dependent, saturable manner | Retardation of radiolabeled LBP migration through the gel by LDL ([1]; listed as clone 26): concentration-dependent, saturable, manner | Effect of immunization on body weight [4]: did not have a significant effect | Effect of immunization on lesions / lesion area [5]: significant effect | Lesion Area % Coverage [5]: 6.01% | Effect of immunization on arterial wall cholesterol content ([6]; apo E knockout mice, once outliers were deleted): significant effect | Arterial Wall Cholesterol ([6]; 26 weeks of age, control 6.33): 3.28 ug cholesterol/mg aorta | Arterial Wall Cholesterol ([6]; outliers deleted): 1.83 ug cholesterol/mg aorta

Retardation of radiolabeled LBP migration by HDL [2]: did not retard | Inhibition by cold LBP of radiolabeled LBP binding to LDL [3]: inhibited binding
B2: LBP-3: rabbit recombinant LDL binding protein LBP-3 (6-His tag), SEQ ID NO: 5 (protein, listed as Oryctolagus cuniculus)
chain: MKNQDKKNGAAKQPNPKSSPGQPEAGAEGAQGRPGRPAPAREAEGASSQAPGRPEGAQAKTAQPGALCDVSEELSRQLEDILSTYCVDNNQGAPGEDGVQGEPPEPEDAEKSRAYVARNGEPEPGTPVVNGEKETSKAEPGTEEIRTSDEVGDRDHRRPQEKKKAKGLGKEITLLMQTLNTLSTPEEKLAALCKKYAELLEEHRNSQKQMKLLQKKQSQLVQEKDHLRGEHSKAILARSKLESLCRELQRHNRSLKEEGVQRAREEEEKRKEVTSHFQMTLNDIQLQMEQHNERNSKLRQENMELAERLKKLIEQYELREEHIDKVFKHKDLQQQLVDAKLQQAQEMLKEAEERHQREKDFLLKEAVESQRMCELMKQQETHLKQQLALYTEKFEEFQNTLSKSSEVFTTFKQEMEKMTKKIKKLEKETTMYRSRWESSNKALLEMAEEKTLRDKELEGLQVKIQRLEKLCRALQTERNDLNKRVQDLSAGGQGPVSDSGPERRPEPATTSKEQGVEGPGAQVPNSPRATDASCCAGAPSTEASGQTGPQEPTTATA
modifications: 6-His tag
Retardation of radiolabeled LBP migration through the gel by LDL [1]: concentration-dependent, saturable manner | Effect of immunization on body weight [4]: did not have a significant effect | Effect of immunization on lesions / lesion area [5]: did not have a significant effect | Lesion Area % Coverage [5]: 7.14% | Arterial Wall Cholesterol ([6]; 26 weeks of age, control 6.33): 4.48 ug cholesterol/mg aorta | Effect of immunization on lesions [7]: did not have a significant effect

B3: recombinant human LBP-2: purified human recombinant LBP-2 used as immunogen with RIBI adjuvant (protein)
chain: EERVLEKEEEEDDDEDEDEEDDVSEGSEVPESDRPAGAQHHQLNGERGPQSAKERVKEWTPCGPHQGQDEGRGPAPGSGTRQVFSMAAMNKEGGTASVATGPDSPSPVPLPPGKPALPGADGTPFGCPPGRKEKPSDPVEWTVMDVVEYFTEAGFPEQATAFQEQEIDGKSLLLMQRTDVLTGLSIRLGPALKIYEHHIKVLQQGHFEDDDPDGFLG
Accumulation of radiolabeled LDL in ballooned abdominal aorta versus nonimmune-ballooned rabbits [8]: lower accumulation

Source: patent publication US7807384B2, “Low density lipoprotein binding proteins and their use in diagnosing and treating atherosclerosis” (Boston Heart Foundation, Inc., priority 1996, dated 2010)
